Source: paper PMC314469, “Protein Interaction Networks by Proteome Peptide Scanning” (PLoS Biology, 2004)

What was measured:
[1] = biological target: endophilin SH3 (SH3G2_HUMAN), Q99962; test: SPOT array
[2] = biological target: T1, amphyphisin SH3 (AMPH_HUMAN), P49418; test: SPOT array
T1 chain: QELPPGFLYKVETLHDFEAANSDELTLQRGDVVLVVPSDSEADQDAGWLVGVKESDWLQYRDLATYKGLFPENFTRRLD

Binder | normalised SPOT signal, Boehringer light units (BLU); mean over the file's lines of this peptide [1] | normalised SPOT signal, Boehringer light units (BLU); mean over the file's lines of this peptide [2]
SSFIPKRPIPTIKD [Q12882 910-923] | 514 | 17.6
SDSKPKRPQPSREI [Q96JP2 1105-1118] | 44.6 | 13.6
SSGGFRRPEELGRV [P09529 57-70] | 11.4 | 41.8
SEAAPRRPEATAAP [Q9H677 423-436] | 16.1 | 26.1
SDREPTRPPRPILQ [Q9NQ53 86-99] | 52.9 | 3890
SSKNIYRPDKFLQS [P28907 274-287] | 63.6 | 34
SAVVLKRPEILTDE [Q06055 26-39] | 38.4 | 42.7
SSNFPRRPDSGDVT [Q9BYH1 392-405] | 67.7 | 29.9
SSTPPPRPPVLEEW [Q9UL65 458-472] | 110 | 29.8
SSQRPGRPARVALP [P98161 2194-2207] | 13500 | 2220
SAPSPARPARTQGP [Q9NPI5 198-211] | 4590 | 4310
SASEFDRPLRPIVV [O76074 102-115] | 54 | 131
SSRAPPRPAKTTDP [Q9P2Q1 364-377] | 279 | 378
SASGIKRPMASEVP [Q99754 28-41] | 81.2 | 17.6
SSKIFRRPSLPSIS [Q13370 310-323] | 40.4 | 12.2
SDFSPSKPPSGPGK [Q9BZH6 185-199] | 63.8 | 52
AWARPPKPPTFGEF [Q9Y3X0 319-333] | 716 | 21.8
